Results published in the supplement of paper PMC6757056.
± gives the standard deviation of the averaged measurements.

B1: library; a variant is named by its letters at N, in order (parent)
chain: GCUGUCACCGGUGUAUUACCCUAGUGGUCGACCGGUCUGAUGAGUCUNNNNNNAGACGAAACAGC

Assays:
hypoxanthine [1] = variants of: B1; assay: FACS-Seq fitted mean relative fluorescence mCherry/BFP without ligand (log10 relative fluorescence); ligand: hypoxanthine (xanthine aptamer); higher = higher reporter protein expression; conditions: HEK293T, ligand present: no
Outline: (§1)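 HEK293T libraries were lentivirally transduced with an mCherry reporter carrying the ribozyme switch and an EF1α-BFP marker, enriched, and incubated for 48 h with or without ligand before sorting into 6 bins by mCherry/BFP. Genomic DNA from each bin was PCR-amplified, barcoded and sequenced on MiSeq. Fluorescence is the fitted normal mean of the bin counts. The fit used log10(mCherry/BFP), and means were scaled to five spiked-in control ribozymes.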

hypoxanthine [2] = variants of: B1; assay: normalized RNA/DNA level with ligand (relative to sTRSVctl = 100) (log10 (% of sTRSVctl)); ligand: hypoxanthine (xanthine aptamer); higher = less ribozyme self-cleavage, higher mRNA level; conditions: ligand concentration (+) RNA-Seq: 5 mM, HEK293T, reporter: mCherry (pCS4076), ligand present: yes
Outline: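 RNA level was computed as RNA reads over DNA reads divided by a spiked-in non-cleaving sequence or by the top sequences, then scaled and log-transformed. Scaling was ×100 with log10, the top group was 25 sequences, and the threshold was ≥100 DNA reads. The reads came from HEK293T cells transfected at 4 µg per 6-well well with ribozyme switch library plasmids (mCherry, or eGFP in some ligand experiments). Total RNA was extracted with EDTA 72 h after transfection, with any ligand added 1 h before it.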

hypoxanthine [3] = variants of: B1; assay: normalized RNA/DNA level without ligand (relative to sTRSVctl = 100) (log10 (% of sTRSVctl)); ligand: hypoxanthine (xanthine aptamer); higher = less ribozyme self-cleavage, higher mRNA level; conditions: HEK293T, reporter: mCherry (pCS4076), ligand present: no
Description: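 Hammerhead (sTRSV) ribozyme switch libraries with a ligand aptamer grafted on stem I and a randomized N4-6 loop II, cloned into the 3' UTR of mCherry and transiently transfected into HEK293T cells; RNA-Seq 72 h post transfection with ligand added 1 h before transfection; RNA read count / plasmid DNA read count normalized to the non-cleaving sTRSVctl (x100), log10; sequences with >100 DNA reads. FACS-Seq: lentiviral library sorted into 6 bins after 48 h ligand, log-normal fit mean of mCherry/BFP scaled to controls. Printed sequences are partial switch sequences.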

hypoxanthine [4] = variants of: B1; assay: FACS-Seq fitted mean relative fluorescence mCherry/BFP with ligand (log10 relative fluorescence); ligand: hypoxanthine (xanthine aptamer); ligand concentration (+) FACS-Seq: 5 mM; higher = higher reporter protein expression; conditions: HEK293T, ligand present: yes
Outline: as §1

Variant | FACS-Seq fitted mean (log10) (hypoxanthine [1]) | normalized RNA/DNA level with ligand (log10) (hypoxanthine [2]) | normalized RNA/DNA level without ligand (log10) (hypoxanthine [3]) | FACS-Seq fitted mean (log10) (hypoxanthine [4])
GGAAGA | 0.0989 ± 0.032 | 1.89 ± 0.045 | 1.45 ± 0.032 | 0.576 ± 0.039
GGAAGG | -0.0545 ± 0.055 | 1.81 ± 0.03 | 1.29 ± 0.068 | 0.241 ± 0.04
GGAAGC | 0.167 ± 0.013 | 1.77 ± 0.033 | 1.297 ± 0.0033 | 0.358 ± 0.042
UCGUGC | 0.446 ± 0.039 | 1.953 ± 0.016 | 1.78 ± 0.072 | 0.686 ± 0.013
UCGUGA | 0.414 ± 0.036 | 1.84 ± 0.022 | 1.27 ± 0.039 | 0.578 ± 0.16
UCGUGG | 0.572 ± 0.0094 | 1.9 ± 0.024 | 1.593 ± 0.0033 | 0.819 ± 0.066
ACUGGU | 0.0934 ± 0.044 | 1.926 ± 0.0036 | 1.65 ± 0.06 | 0.1 ± 0.11
ACUGGA | 0.309 ± 0.0042 | 1.952 ± 0.017 | 1.71 ± 0.03 | 0.587 ± 0.064
UCGGGA | 0.091 ± 0.059 | 1.82 ± 0.078 | 1.23 ± 0.021 | 0.767 ± 0.094
GCUUAG | 0.401 ± 0.077 | 1.83 ± 0.05 | 1.4 ± 0.025 | 0.791 ± 0.096
GCUUAA | 0.221 ± 0.11 | 1.92 ± 0.047 | 1.79 ± 0.036 | 0.508 ± 0.0091
CCUAAA | 0.725 ± 0.1 | 1.95 ± 0.035 | 1.84 ± 0.019 | 0.615 ± 0.021
CGAAAC | 0.667 ± 0.046 | 1.92 ± 0.063 | 1.732 ± 0.0036 | 0.6 ± 0.081
CGAAAA | 0.531 ± 0.032 | 1.89 ± 0.062 | 1.6917 ± 0.00075 | 0.67 ± 0.045
CGAAAU | 0.0751 ± 0.04 | 1.91 ± 0.049 | 1.73 ± 0.021 | 0.0235 ± 0.19
AGAACC | 0.228 ± 0.048 | 1.937 ± 0.014 | 1.87 ± 0.022 | 0.264 ± 0.055
AGAACG | 0.48 ± 0.04 | 1.833 ± 0.015 | 1.436 ± 0.0026 | 0.756 ± 0.08
GCUUGA | 0.378 ± 0.011 | 1.924 ± 0.018 | 1.817 ± 0.0041 | 0.53 ± 0.017
GCUUGG | -0.174 ± 0.029 | 1.83 ± 0.036 | 1.374 ± 0.0045 | 0.326 ± 0.038
GCGUAG | -0.175 ± 0.014 | 1.566 ± 0.0039 | 1.15 ± 0.062 | 0.539 ± 0.027
GCGUAU | 0.549 ± 0.031 | 1.83 ± 0.037 | 1.49 ± 0.046 | 0.824 ± 0.043
GCGUAC | -0.0412 ± 0.02 | 1.82 ± 0.069 | 1.33 ± 0.025 | 0.4627 ± 0.0021
ACUAAA | 0.324 ± 0.083 | 1.897 ± 0.0002 | 1.76 ± 0.018 | 0.54 ± 0.027
ACUAAU | 0.475 ± 0.018 | 1.92 ± 0.046 | 1.67 ± 0.058 | 0.628 ± 0.041

Variant | FACS-Seq fitted mean (log10) (hypoxanthine [1]) | normalized RNA/DNA level with ligand (log10) (hypoxanthine [2]) | normalized RNA/DNA level without ligand (log10) (hypoxanthine [3]) | FACS-Seq fitted mean (log10) (hypoxanthine [4])
ACUAAC | -0.0807 ± 0.092 | 1.95 ± 0.057 | 1.8 ± 0.041 | 0.0498 ± 0.032
ACUAAG | -0.0198 ± 0.018 | 1.833 ± 0.017 | 1.5247 ± 0.0014 | 0.236 ± 0.15
GCUAAC | 0.101 ± 0.032 | 1.93 ± 0.036 | 1.66 ± 0.036 | -0.141 ± 0.025
GCUAAU | 0.665 ± 0.11 | 1.93 ± 0.052 | 1.788 ± 0.012 | 0.7639 ± 0.0062
GCUAAG | -0.184 ± 0.019 | 1.838 ± 0.0086 | 1.421 ± 0.0074 | 0.199 ± 0.03
UCUAAA | 0.325 ± 0.034 | 1.96 ± 0.035 | 1.79 ± 0.062 | 0.0897 ± 0.011
UCUAAU | 0.308 ± 0.028 | 1.92 ± 0.022 | 1.79 ± 0.039 | 0.511 ± 0.032
UCUAAG | 0.59 ± 0.091 | 1.9502 ± 0.0012 | 1.7 ± 0.088 | 0.678 ± 0.094
ACGGUA | 0.318 ± 0.0024 | 1.85 ± 0.056 | 1.57 ± 0.064 | 0.5989 ± 0.004
UCUUGA | 0.296 ± 0.011 | 1.94 ± 0.035 | 1.51 ± 0.036 | 0.572 ± 0.0065
CCUGUG | 0.676 ± 0.039 | 1.97 ± 0.026 | 1.86 ± 0.051 | 0.685 ± 0.086
CCUGUA | 0.473 ± 0.019 | 1.892 ± 0.015 | 1.89 ± 0.041 | 0.515 ± 0.006
UCGGUA | 0.215 ± 0.024 | 1.912 ± 0.014 | 1.562 ± 0.014 | 0.485 ± 0.04
ACUCGG | 0.949 ± 0.075 | 1.87 ± 0.042 | 1.44 ± 0.12 | 0.651 ± 0.2
ACUCGA | 0.714 ± 0.029 | 1.958 ± 0.017 | 1.74 ± 0.043 | 0.665 ± 0.029
CCGGUU | 0.42 ± 0.083 | 2.026 ± 0.011 | 1.91 ± 0.032 | 0.297 ± 0.098
CCGGUG | 0.264 ± 0.0078 | 1.87 ± 0.087 | 1.45 ± 0.044 | 0.594 ± 0.0013
ACUCCC | -0.354 ± 0.031 | 1.96 ± 0.06 | 1.924 ± 0.019 | -0.746 ± 0.075
ACUCCG | 0.262 ± 0.039 | 1.895 ± 0.0092 | 1.44 ± 0.026 | 0.615 ± 0.02
GGAAAA | -0.00225 ± 0.06 | 1.925 ± 0.018 | 1.686 ± 0.006 | 0.168 ± 0.059
GGAAAG | 0.282 ± 0.038 | 1.8 ± 0.018 | 1.34 ± 0.094 | 0.711 ± 0.029
AGAAGG | 0.227 ± 0.0085 | 1.85 ± 0.051 | 1.42 ± 0.044 | 0.463 ± 0.011
AGAAGA | 0.156 ± 0.021 | 1.92 ± 0.029 | 1.525 ± 0.013 | 0.466 ± 0.016
ACUGAC | 0.249 ± 0.034 | 1.95 ± 0.11 | 1.835 ± 0.014 | 0.347 ± 0.1

Variant | FACS-Seq fitted mean (log10) (hypoxanthine [1]) | normalized RNA/DNA level with ligand (log10) (hypoxanthine [2]) | normalized RNA/DNA level without ligand (log10) (hypoxanthine [3]) | FACS-Seq fitted mean (log10) (hypoxanthine [4])
ACUGAG | 0.241 ± 0.019 | 1.818 ± 0.015 | 1.37 ± 0.04 | 0.673 ± 0.028
ACUGAU | 0.247 ± 0.08 | 1.92 ± 0.053 | 1.67 ± 0.026 | 0.431 ± 0.058
ACUGAA | 0.038 ± 0.062 | 1.92 ± 0.079 | 1.737 ± 0.0053 | 0.0938 ± 0.16
GGAACG | 0.254 ± 0.083 | 1.88 ± 0.072 | 1.503 ± 0.015 | 0.597 ± 0.098
CCUCGA | 0.268 ± 0.026 | 2 ± 0.011 | 1.87 ± 0.044 | 0.314 ± 0.059
GCUGUG | 0.345 ± 0.079 | 1.93 ± 0.025 | 1.76 ± 0.022 | 0.539 ± 0.081
ACUGUG | 0.119 ± 0.026 | 1.85 ± 0.033 | 1.42 ± 0.069 | 0.0877 ± 0.23
CCGGGC | 0.124 ± 0.013 | 1.99 ± 0.074 | 1.88 ± 0.019 | 0.382 ± 0.068
GCGGUA | 0.439 ± 0.019 | 1.943 ± 0.0021 | 1.68 ± 0.036 | 0.677 ± 0.034
GCGGUG | 0.212 ± 0.007 | 1.79 ± 0.053 | 1.41 ± 0.097 | 0.623 ± 0.019
GCGGUC | 0.327 ± 0.046 | 1.878 ± 0.015 | 1.5197 ± 0.00012 | 0.644 ± 0.063
CCUGCG | -0.205 ± 0.019 | 1.98 ± 0.015 | 1.86 ± 0.0037 | -0.2206 ± 0.00099
GCUGCG | 0.192 ± 0.0063 | 1.92 ± 0.057 | 1.6 ± 0.023 | 0.503 ± 0.0077
UGAACA | 0.901 ± 0.04 | 1.955 ± 0.014 | 1.86 ± 0.027 | 0.802 ± 0.072
UGAACU | -0.346 ± 0.014 | 1.913 ± 0.013 | 1.89 ± 0.0097 | 0.000122 ± 0.018
GCUGAU | 0.294 ± 0.021 | 1.97 ± 0.029 | 1.776 ± 0.014 | 0.376 ± 0.054
GCUGAA | 0.332 ± 0.011 | 1.91 ± 0.032 | 1.76 ± 0.038 | 0.43 ± 0.092
GCUUCG | 0.0523 ± 0.089 | 1.929 ± 0.006 | 1.59 ± 0.029 | 0.504 ± 0.069
ACGUUG | -0.189 ± 0.0052 | 1.79 ± 0.033 | 1.28 ± 0.019 | 0.488 ± 0.021
UCUAUC | 0.701 ± 0.082 | 2.046 ± 0.019 | 2 ± 0.023 | 0.59 ± 0.08
UCUAUG | 0.305 ± 0.056 | 1.906 ± 0.008 | 1.74 ± 0.019 | 0.426 ± 0.018
ACGUGG | 0.0467 ± 0.0087 | 1.54 ± 0.018 | 1.13 ± 0.016 | 0.697 ± 0.018
ACGUGA | -0.0934 ± 0.0088 | 1.808 ± 0.01 | 1.17 ± 0.023 | 0.256 ± 0.055
ACGUGU | 0.135 ± 0.003 | 1.87 ± 0.047 | 1.4 ± 0.027 | 0.682 ± 0.074
